Laboratory results: paper doi:10.1101/2022.10.19.512833 (bioRxiv, 2022)

T1: human TSG101 UEV (1-145) domain (human, UniProt Q99816 1-145)
T1 sequence (looked up): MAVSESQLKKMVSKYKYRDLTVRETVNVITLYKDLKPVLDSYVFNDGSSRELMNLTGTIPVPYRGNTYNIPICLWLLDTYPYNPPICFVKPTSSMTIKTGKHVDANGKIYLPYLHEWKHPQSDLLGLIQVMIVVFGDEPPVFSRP


Molecular target: T1, human TSG101 UEV (1-145) domain
Assay: fluorescence polarisation

Binder | Kd
LQSRPEPTAPPEESFR (peptide, UniProt P04591 449-464, looked up) [GAG (HIV-1) residues 449-464, unlabeled peptide] | 15.3 µM
APQGLIPTAPPADPAA [GAG (HIV-2) peptide, residues 450-465, unlabeled] | 6 µM
